Values quoted from earlier work, collected in paper PMC9694239.

Target: CNG channel beta subunit CaM1 peptide CaM1 (Homo sapiens) (UniProt Q14028)
Sequence (Q14028 whole entry, looked up, tested part not stated): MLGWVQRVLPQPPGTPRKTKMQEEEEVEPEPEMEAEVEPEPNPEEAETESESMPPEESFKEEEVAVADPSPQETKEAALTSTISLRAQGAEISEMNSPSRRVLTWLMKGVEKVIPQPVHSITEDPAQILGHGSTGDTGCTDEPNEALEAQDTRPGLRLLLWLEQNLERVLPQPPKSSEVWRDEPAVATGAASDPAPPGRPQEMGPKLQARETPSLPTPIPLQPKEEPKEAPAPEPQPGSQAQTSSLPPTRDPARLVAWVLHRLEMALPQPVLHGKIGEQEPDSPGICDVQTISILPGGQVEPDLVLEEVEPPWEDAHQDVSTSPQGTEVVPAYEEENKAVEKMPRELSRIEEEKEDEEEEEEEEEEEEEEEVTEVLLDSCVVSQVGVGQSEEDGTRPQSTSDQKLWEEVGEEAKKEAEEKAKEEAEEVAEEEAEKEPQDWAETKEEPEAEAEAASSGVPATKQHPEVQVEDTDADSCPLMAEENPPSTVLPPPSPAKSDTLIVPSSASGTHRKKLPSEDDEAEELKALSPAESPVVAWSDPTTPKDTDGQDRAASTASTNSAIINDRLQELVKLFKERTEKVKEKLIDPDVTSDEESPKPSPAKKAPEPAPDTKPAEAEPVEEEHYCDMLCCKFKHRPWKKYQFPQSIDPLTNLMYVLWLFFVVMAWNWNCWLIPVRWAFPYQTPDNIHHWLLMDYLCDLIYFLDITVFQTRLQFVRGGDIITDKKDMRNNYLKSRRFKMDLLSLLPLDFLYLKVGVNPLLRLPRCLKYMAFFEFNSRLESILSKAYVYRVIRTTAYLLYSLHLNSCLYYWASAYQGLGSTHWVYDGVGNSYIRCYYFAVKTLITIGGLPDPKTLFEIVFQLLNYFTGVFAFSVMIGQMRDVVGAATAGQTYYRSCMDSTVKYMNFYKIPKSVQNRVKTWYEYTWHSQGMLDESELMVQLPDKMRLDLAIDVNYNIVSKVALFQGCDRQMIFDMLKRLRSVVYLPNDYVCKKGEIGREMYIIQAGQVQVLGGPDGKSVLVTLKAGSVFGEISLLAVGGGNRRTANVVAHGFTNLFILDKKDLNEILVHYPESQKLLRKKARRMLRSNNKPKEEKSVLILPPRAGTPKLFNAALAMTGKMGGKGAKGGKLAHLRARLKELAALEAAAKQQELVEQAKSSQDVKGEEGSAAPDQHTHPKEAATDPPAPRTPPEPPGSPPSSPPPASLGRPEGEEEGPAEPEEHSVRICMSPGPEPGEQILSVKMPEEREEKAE

For Calmodulin N-lobe (from UniProt P0DP23), the Kd is listed as 5 µM.
